Measured values reported in patent publication US20090155271A1 (ZymoGenetics, published 2009).
Values joined by “and” are separate entries in the source; they are usually repeats but may differ in a detail not shown here. Equal values may be shown once.

T1: human IL-17RC, x1 splice variant, on transfected cells (human, UniProt Q8NAC3 21-791)
T1 construct: Full-length receptor on BHK, 293F or NIH3T3 transfectants; also called hIL-17RC; hIL-17RC (x1)
T1 sequence: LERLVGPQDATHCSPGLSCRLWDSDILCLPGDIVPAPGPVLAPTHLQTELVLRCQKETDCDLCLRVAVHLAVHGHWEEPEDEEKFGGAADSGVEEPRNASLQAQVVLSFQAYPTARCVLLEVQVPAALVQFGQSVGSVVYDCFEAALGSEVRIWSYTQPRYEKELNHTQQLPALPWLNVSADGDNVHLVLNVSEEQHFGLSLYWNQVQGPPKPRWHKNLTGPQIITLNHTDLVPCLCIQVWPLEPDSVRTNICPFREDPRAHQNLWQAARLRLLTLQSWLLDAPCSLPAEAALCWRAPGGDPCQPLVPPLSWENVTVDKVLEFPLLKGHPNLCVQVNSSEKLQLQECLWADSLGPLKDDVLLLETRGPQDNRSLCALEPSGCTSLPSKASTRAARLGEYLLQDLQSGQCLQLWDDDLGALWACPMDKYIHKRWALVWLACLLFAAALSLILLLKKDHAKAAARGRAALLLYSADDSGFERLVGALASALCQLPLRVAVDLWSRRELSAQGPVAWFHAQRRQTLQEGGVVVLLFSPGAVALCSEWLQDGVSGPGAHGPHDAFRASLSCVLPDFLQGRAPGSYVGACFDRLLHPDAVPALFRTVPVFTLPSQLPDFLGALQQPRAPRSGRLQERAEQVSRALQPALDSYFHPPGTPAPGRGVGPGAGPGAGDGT

T2: human IL-17RA on transfected cells (human, UniProt Q96F46 33-320)
T2 sequence: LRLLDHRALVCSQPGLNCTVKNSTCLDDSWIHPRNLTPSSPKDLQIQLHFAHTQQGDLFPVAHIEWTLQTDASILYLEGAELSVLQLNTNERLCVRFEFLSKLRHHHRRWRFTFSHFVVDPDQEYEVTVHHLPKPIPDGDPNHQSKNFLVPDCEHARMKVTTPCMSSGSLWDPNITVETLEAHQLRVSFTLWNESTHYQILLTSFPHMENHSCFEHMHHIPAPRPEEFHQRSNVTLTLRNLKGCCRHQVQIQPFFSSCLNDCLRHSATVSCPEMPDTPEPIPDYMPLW

T3: human IL-17A (human, UniProt Q16552 24-155)
T3 construct: also called hIL-17A; huIL-17A
T3 sequence: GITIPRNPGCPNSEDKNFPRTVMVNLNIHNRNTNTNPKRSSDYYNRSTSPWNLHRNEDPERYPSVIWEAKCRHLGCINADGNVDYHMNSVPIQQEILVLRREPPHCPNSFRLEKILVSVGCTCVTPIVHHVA

B1: human IL-17F (ligand)
chain: RKIPKVGHTFFQKPESCPPVPGGSMKLDIGIINENQRVSMSRNIESRSTSPWNYTVTWDPNRYPSEVVQAQCRNLGCINAQGKEDISMNSVPIQQETLVVRRKHQGCSVSFQLEKVLVTVGCTCVTPVIHHVQ
notes: also called hIL-17F; huIL-17F
B2: mouse IL-17A (ligand)
chain: AAIIPQSSACPNTEAKDFLQNVKVNLKVFNSLGAKVSSRRPSDYLNRSTSPWTLHRNEDPDRYPSVIWEAQCRHQRCVNAEGKLDHHMNSVLIQQEILVLKREPESCPFTFRVEKMLVGVGCTCVASIVRQAA
B3: Variant 1454 (exons 1-6 of human IL-17RA and 8-16 of human IL-17RCx1, fused to Fc5) (Fc fusion)
chain: SLRLLDHRALVCSQPGLNCTVKNSTCLDDSWIHPRNLTPSSPKDLQIQLHFAHTQQGDLFPVAHIEWTLQTDASILYLEGAELSVLQLNTNERLCVRFEFLSKLRHHHRRWRFTFSHFVVDPDQEYEVTVHHLPKPIPDGDPNHQSKNFLVPDCEHARMKVTTPCMSSALPWLNVSADGDNVHLVLNVSEEQHFGLSLYWNQVQGPPKPRWHKNLTGPQIITLNHTDLVPCLCIQVWPLEPDSVRTNICPFREDPRAHQNLWQAARLRLLTLQSWLLDAPCSLPAEAALCWRAPGGDPCQPLVPPLSWENVTVDKVLEFPLLKGHPNLCVQVNSSEKLQLQECLWADSLGPLKDDVLLLETRGPQDNRSLCALEPSGCTSLPSKASTRAARLGEYLLQDLQSGQCLQLWDDDLGALWACPMDKYIHKEPKSSDKTHTCPPCPAPEAEGAPSVFLFPPKPKDTLMISRTPEVTCVVVDVSHEDPEVKFNWYVDGVEVHNAKTKPREEQYNSTYRVVSVLTVLHQDWLNGKEYKCKVSNKALPSSIEKTISKAKGQPREPQVYTLPPSRDELTKNQVSLTCLVKGFYPSDIAVEWESNGQPENNYKTTPPVLDSDGSFFLYSKLTVDKSRWQQGNVFSCSVMHEALHNHYTQKSLSLSPGK
notes: also called IL17RA/RC 1454; soluble IL-17RC/IL-17RA polypeptide

Tests used:
[1] = molecular target: T1, human IL-17RC, x1 splice variant, on …; assay: 100x molar cold competitor, 125I IL-17A on BHK hIL-17RC cells
Protocol: (§1) Cold competitors were added in 100 fold molar excess. […] Wells were incubated on ice for 1-hour followed by two washes with PBS (Invitrogen 20012-027) and one wash with a high salt solution (1.5M NaCL, 50 mM HEPES pH 7.4). Wells were extracted with 500 ul of 0.8M NaOH for 30 min. at room temperature and counts per minute were measured in a gamma counter (Packard Cobra II A5005).

[2] = molecular target: T1, human IL-17RC, x1 splice variant, on …; assay: 100x molar cold competitor, 125I IL-17F on BHK hIL-17RC cells
Protocol: as §1

[3] = molecular target: T2, human IL-17RA on transfected cells; assay: cell-based or functional assay
[4] = molecular target: T1, human IL-17RC, x1 splice variant, on …; assay: cell-based or functional assay
human IL-17F [5] = molecular target: B1; assay: Biacore, rounded summary of Table 10
From the text: (§2) The protocol was optimized to capture receptor at a theoretical binding max. before injecting a concentration series of each ligand to observe association and dissociation. […] The surface was regenerated with 2×30 sec. injections of pH 1.75 glycine between cycles.

human IL-17A [6] = molecular target: T3, human IL-17A; assay: Biacore, rounded summary of Table 10
From the text: as §2

human IL-17F [7] = molecular target: B1; assay: Biacore, receptor captured by anti-human IgG-Fc on CM5, ligand series
From the text: as §2

human IL-17A [8] = molecular target: T3, human IL-17A; assay: as above
From the text: as §2

human IL-17F [9] = molecular target: B1; assay: cell-based or functional assay
human IL-17A [10] = molecular target: T3, human IL-17A; assay: cell-based or functional assay
human IL-17F [11] = molecular target: B1; assay: cell-based or functional assay; remark: listed apart in the source
human IL-17A [12] = molecular target: T3, human IL-17A; assay: cell-based or functional assay; remark: listed apart in the source

In the case of B1, the “fold reduction of 125I IL-17A binding” value [1] is reported as ~7 fold, the “fold reduction of 125I IL-17F binding” value [2] is reported as ~5 fold and the “EC50, ap1/nfkb luciferase in nih3t3/kz142.8/IL-17R cells” value [3] is reported as 0.0124 µg/mL. For the same binder, the “EC50, ap1/nfkb luciferase in nih3t3/kz142.8/hcytor14X1 cells” value [4] was 0.00061 µg/mL.

For B2, the “EC50, ap1/nfkb luciferase in nih3t3/kz142.8/hcytor14x1 cells” value [4] was ~0.004 µg/mL.

For B3, the Kd (human IL-17F [5]) was ~0.14 nM, the Kd (human IL-17A [6]) was ~0.04 nM and the Kd (human IL-17F [7]) was 0.143 nM and 0.126 nM. For the same binder, the koff (human IL-17F [7]) was 0.000261 s⁻¹ and 0.000315 s⁻¹, the kon (human IL-17F [7]) was 1.82e+06 M⁻¹ s⁻¹ and 2.49e+06 M⁻¹ s⁻¹ and the Kd (human IL-17A [8]) was 0.0439 nM and 0.0382 nM. For the same binder, the koff (human IL-17A [8]) was 6.22e-05 s⁻¹ and 9.95e-05 s⁻¹, the kon (human IL-17A [8]) was 1.42e+06 M⁻¹ s⁻¹ and 2.61e+06 M⁻¹ s⁻¹ and the “IC50, huIL-17F(50 ng/ml) induction of G-CSF in SAEC” value (human IL-17F [9]) was 1.2 µg/mL. For the same binder, the “IC50, huIL-17F(50 ng/ml) induction of IL-8 in SAEC” value (human IL-17F [9]) was 0.57 µg/mL, the “IC50, huIL-17A(10 ng/ml) induction of G-CSF in SAEC” value (human IL-17A [10]) was 0.14 µg/mL and the “IC50, huIL-17A(10 ng/ml) induction of IL-8 in SAEC” value (human IL-17A [10]) was 0.03 µg/mL. The “IC50, luciferase activation of hIL-17RA/NIH3T3/KZ142.8 cells by 20 ng/ml IL-17F” value (human IL-17F [11]) was 0.48 µg/mL, the “IC50, luciferase activation of hIL-17RCX4/NIH3T3/KZ142.8 cells by 1 ng/ml IL-17F” value (human IL-17F [11]) was 0.8 µg/mL and the “IC50, luciferase activation of hIL-17RA/NIH3T3/KZ142.8 cells by 0.5 ng/ml IL-17A” value (human IL-17A [12]) was 0.007 µg/mL.
